The values that follow are results of earlier work, collected in article PMC3978290.

Several values for one entry are separate records, joined by “and”; a condition that tells them apart may be missing. Equal values may be shown once.

One series has as its target C3b C3b (Homo sapiens) (UniProt P01024). Kind of series: SPR.
For series [1], the target named is Complement factor H (Homo sapiens) (UniProt P08603). Kind of series: sedimentation equilibrium.
Series [2] deals with C-reactive protein (Homo sapiens) (UniProt P02741). Kind of series: SPR. In general terms: In SPR one partner is held on a chip, and binding of the other changes the refractive index at the surface.
Another series has as its target C3u C3u (Homo sapiens) (UniProt P01024). Kind of series: sedimentation velocity.

Sequence of Complement factor H (P08603 19-1231): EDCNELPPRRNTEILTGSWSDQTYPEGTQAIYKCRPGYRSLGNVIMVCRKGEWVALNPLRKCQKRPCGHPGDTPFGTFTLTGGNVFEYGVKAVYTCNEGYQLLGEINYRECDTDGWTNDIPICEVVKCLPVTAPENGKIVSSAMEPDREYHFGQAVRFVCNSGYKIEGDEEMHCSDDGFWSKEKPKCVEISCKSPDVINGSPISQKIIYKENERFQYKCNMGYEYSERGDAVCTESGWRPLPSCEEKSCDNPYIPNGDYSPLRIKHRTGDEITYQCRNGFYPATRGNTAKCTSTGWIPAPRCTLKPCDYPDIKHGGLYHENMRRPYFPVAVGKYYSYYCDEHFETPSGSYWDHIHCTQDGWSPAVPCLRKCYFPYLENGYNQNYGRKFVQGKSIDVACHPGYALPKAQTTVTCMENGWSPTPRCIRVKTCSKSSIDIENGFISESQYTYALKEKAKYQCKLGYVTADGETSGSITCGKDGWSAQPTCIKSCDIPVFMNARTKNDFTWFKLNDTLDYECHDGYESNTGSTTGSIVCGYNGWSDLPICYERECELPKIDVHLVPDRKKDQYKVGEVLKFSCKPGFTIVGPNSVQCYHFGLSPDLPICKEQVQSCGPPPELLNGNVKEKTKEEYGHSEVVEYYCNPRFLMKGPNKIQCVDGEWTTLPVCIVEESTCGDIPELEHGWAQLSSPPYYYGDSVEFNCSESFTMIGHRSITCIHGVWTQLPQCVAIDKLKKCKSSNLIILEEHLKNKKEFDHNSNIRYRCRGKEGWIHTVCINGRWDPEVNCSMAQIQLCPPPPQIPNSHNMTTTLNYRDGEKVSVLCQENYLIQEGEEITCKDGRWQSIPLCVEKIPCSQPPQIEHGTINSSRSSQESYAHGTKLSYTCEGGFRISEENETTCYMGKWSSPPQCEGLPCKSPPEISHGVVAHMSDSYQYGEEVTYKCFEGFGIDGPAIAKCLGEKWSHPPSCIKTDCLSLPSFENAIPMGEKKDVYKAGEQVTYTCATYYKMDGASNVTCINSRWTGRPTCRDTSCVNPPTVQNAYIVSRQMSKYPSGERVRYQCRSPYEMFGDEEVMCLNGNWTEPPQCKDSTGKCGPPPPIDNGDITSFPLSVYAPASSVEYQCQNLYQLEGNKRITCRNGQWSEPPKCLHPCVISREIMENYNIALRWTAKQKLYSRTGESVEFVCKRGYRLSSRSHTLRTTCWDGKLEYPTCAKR
Sequence of C3b C3b (Homo sapiens) (P01024 566-670): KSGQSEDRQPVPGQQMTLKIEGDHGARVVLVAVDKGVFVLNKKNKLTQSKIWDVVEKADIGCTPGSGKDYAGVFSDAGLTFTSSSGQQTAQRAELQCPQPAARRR
Sequence of Complement factor H SCR-1/4 SCR-1/4 (P08603 19-264): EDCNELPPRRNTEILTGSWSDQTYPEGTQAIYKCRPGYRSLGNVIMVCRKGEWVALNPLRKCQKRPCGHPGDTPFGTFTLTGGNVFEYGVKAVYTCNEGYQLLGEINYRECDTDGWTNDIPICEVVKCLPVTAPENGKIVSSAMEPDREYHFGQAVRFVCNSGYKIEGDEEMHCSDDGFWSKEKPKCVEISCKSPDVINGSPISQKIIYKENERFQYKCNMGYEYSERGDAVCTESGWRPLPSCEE
Sequence of Complement factor H SCR-19/20 (P08603 1107-1231): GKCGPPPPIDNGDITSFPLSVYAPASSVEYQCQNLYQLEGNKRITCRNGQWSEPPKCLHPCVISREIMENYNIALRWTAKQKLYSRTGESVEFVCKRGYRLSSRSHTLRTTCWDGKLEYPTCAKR
Sequence of C-reactive protein (Homo sapiens) (P02741 19-223): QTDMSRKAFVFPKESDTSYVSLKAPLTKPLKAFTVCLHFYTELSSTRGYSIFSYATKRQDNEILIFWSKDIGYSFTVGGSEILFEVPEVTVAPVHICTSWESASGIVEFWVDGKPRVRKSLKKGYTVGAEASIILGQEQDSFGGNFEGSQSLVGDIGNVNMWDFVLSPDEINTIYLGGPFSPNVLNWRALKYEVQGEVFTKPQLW
Sequence of C3u C3u (Homo sapiens) (P01024 23-667, chain 1 of 2): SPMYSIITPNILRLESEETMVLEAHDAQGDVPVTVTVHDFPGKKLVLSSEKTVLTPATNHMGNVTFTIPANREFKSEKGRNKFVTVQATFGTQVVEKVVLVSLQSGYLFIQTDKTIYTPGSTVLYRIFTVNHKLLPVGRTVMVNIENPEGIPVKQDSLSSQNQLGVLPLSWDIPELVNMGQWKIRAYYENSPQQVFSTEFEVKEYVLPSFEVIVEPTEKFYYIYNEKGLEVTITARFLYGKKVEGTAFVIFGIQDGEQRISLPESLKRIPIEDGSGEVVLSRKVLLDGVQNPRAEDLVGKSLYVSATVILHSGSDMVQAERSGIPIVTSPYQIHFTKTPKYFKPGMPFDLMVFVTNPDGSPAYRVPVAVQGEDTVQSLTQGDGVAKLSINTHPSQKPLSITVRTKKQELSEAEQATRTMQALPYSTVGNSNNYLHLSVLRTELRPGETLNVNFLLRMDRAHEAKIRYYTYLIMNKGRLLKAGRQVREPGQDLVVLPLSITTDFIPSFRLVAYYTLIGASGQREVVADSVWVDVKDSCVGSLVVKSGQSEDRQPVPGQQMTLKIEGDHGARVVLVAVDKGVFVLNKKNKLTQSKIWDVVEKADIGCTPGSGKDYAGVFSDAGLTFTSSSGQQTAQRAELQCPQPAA
Sequence of C3u C3u (Homo sapiens) (P01024 672-1663, chain 2 of 2): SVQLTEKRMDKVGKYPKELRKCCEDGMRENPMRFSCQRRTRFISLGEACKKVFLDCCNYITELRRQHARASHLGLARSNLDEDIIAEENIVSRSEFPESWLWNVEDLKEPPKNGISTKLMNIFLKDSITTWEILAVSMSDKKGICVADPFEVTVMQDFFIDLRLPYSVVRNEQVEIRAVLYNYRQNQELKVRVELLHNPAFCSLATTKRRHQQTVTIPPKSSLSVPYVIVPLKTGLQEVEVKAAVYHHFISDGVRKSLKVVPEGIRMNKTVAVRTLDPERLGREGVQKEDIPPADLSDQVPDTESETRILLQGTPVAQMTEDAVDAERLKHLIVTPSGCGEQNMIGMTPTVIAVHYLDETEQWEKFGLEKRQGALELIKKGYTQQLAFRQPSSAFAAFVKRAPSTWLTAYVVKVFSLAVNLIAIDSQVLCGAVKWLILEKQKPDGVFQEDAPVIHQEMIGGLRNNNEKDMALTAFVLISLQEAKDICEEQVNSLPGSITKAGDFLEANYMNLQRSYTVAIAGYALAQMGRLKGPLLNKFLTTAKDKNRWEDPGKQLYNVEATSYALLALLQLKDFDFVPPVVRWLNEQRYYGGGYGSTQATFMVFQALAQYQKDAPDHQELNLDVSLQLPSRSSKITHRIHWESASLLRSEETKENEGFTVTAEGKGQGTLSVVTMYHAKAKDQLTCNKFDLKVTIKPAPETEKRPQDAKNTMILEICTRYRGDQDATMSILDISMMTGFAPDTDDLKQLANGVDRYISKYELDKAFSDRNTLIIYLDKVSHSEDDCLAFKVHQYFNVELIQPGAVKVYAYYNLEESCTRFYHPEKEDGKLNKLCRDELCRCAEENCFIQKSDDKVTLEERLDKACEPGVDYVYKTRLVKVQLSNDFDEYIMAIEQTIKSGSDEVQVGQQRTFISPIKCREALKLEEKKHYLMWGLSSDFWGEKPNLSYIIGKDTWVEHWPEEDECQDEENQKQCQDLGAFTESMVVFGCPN

Broadly, the Kd is the constant that tells how readily two partners part at equilibrium. On to “Complement factor H SCR-19/20 (from UniProt P08603)”, for which the Kd with C3b C3b (Homo sapiens) was 5.4 µM and 0.54 µM.
For the substance “Complement factor H (from UniProt P08603)”, the Kd in series [1] was 28 µM; in series [2] it was 4.2 µM; with C3b C3b (Homo sapiens), 1.1 µM; in the series with C3u C3u (Homo sapiens), 0.59 µM.
“Complement factor H SCR-1/4 SCR-1/4 (from UniProt P08603)”: the Kd with C3b C3b (Homo sapiens) is 11.7 µM and 11 µM.
